# Test results: paper PMC1807978
# Key:
# Assay in all cases: EMSA
# [1] = target: 4bFH (4bZf-M.HpaII F35H) (synthetic zinc finger; prokaryotic Mtase) (UniProt P15446)
# [2] = target: 4cFH (4cZf-M.HpaII F35H) (synthetic zinc finger; prokaryotic Mtase) (UniProt P15446)
# [3] = target: T1, M.HpaII wild type (no zinc finger) (UniProt P15446)
# T1 sequence: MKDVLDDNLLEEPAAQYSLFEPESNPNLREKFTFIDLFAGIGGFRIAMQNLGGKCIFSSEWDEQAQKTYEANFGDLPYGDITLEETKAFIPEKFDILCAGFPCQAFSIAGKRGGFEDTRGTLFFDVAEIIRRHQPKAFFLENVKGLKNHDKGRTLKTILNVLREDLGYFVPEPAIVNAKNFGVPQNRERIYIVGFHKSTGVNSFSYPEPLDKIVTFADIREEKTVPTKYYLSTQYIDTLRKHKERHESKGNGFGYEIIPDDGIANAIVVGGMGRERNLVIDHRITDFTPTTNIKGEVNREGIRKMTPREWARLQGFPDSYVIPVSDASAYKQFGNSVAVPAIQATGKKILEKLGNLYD
sequence,measurement,setting,value
TGGCCACGCCACTCCCCAGGCTCCATTCCAGGCCGGCGCAATGCTAGACTCGACGCGGCGCTCGTTGCCA (double strand) [Tb/c],Kd,[1],38 nM
same,Kd,[2],3 nM
same,Kd,[3],170 nM
